EP4714976A1

Key:
[1] = target: recombinant mouse FGFR2b (mouse) (UniProt P21803); assay: BLI, antibody on AHC2 sensor
[2] = target: recombinant mouse FGFR2b (mouse) (UniProt P21803); assay: ELISA, antibody 1ug/mL
FGFR1 (acro) = FGFR1 (acro) (UniProt P11362); assay: ELISA, antibody 10 µg/mL
[3] = target: extracellular domain of the FGFR2b protein (NP_075259.4) (UniProt P21802); assay: phage ELISA
Sequence of extracellular domain of the FGFR2b protein (NP_075259.4) (P21802 other isoform, or with tags, fused parts or gaps): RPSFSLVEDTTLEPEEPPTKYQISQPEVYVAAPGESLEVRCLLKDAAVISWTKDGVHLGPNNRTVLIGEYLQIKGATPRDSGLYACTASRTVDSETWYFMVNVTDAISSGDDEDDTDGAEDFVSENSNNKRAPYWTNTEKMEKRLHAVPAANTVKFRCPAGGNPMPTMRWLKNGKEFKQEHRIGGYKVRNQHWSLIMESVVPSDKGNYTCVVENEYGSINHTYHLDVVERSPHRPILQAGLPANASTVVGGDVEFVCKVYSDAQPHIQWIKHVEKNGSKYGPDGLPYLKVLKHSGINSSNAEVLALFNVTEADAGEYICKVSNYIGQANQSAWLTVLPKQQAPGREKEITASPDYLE

Sequence of recombinant mouse FGFR2b (mouse) (P21803 22-377): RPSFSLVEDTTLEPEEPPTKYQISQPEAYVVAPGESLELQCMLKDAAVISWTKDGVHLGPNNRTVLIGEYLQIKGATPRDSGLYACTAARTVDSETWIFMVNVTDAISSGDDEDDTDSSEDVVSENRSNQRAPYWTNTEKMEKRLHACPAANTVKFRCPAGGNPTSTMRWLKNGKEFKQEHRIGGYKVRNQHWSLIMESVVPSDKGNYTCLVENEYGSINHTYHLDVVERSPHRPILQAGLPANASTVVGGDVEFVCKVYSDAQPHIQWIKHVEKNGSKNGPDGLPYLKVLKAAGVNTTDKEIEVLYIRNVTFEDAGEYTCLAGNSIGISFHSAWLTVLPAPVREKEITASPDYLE
Sequence of FGFR1 (acro) (P11362 22-376): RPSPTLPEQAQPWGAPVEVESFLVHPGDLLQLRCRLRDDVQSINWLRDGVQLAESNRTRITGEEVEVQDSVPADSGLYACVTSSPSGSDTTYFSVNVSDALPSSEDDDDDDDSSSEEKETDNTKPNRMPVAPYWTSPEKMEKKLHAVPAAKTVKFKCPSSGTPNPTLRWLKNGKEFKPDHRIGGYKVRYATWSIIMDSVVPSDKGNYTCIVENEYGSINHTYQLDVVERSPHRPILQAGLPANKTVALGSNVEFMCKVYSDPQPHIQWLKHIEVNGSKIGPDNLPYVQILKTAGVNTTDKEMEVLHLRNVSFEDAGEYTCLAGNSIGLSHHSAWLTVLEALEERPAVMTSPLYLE

| Binder | Kd [1] | koff [1] | kon [1] | OD (450 nm) value [2] | OD (450 nm) value (FGFR1 (acro)) | OD (450 nm) value [3] |
| --- | --- | --- | --- | --- | --- | --- |
| 3F5 scFv-Fc (Fc fusion) EIQLQQSGAELVKPGASVKMSCKASGYTFRYYNMHWVKRTPGQGLEWIGLIYPDNGDTSYNQKFKGKATLTADTSSSTAYMQLSSLTSEDSAVYYCARGGLDYWGQGTTLTVSSGGGGSGGGGSGGGGSDIVLTQSPASLSASVGETVTITCGASENIYGALNWYQRKQGKSPQLLIYGATNLADGMSSRFSGSGSGRQYSLKISSLHPDDVATYYCQNVLSTPYTFGGGTKLEIKESKYGPPCPPCPAPEAAGGPSVFLFPPKPKDTLMISRTPEVTCVVVDVSQEDPEVQFNWYVDGVEVHNAKTKPREEQFNSTYRVVSVLTVLHQDWLNGKEYKCKVSNKGLPSSIEKTISKAKGQPREPQVYTLPPSQEEMTKNQVSLTCLVKGFYPSDIAVEWESNGQPENNYKTTPPVLDSDGSFFLYSKLTVDKSRWQEGNVFSCSVMHEALHNHYTQKSLSLSLG | 36.1 nM | 0.00162 s⁻¹ | 44800 M⁻¹ s⁻¹ | 2.38 | 0.108 |  |
| 3C9 scFv-Fc (Fc fusion) EIQLQQSGAELVKPGASVKMSCKASGYIFRYYNMHWVKRTPGQGLEWIGLIYPDNGDTSYNQKFKGKATLTADTSSSTAYMQLSSLTSEDSAVYYCARGGLDYWGQGTTLTVSSGGGGSGGGGSGGGGSDIQMIQSPASLSASVGETVTITCGASENIYGALNWYQRKQGKSPQLLIYGATNLADGMSSRFSGSGSGRQYSLKISSLHPDDVATYYCQNVLSTPYTFGGGTKLEIKESKYGPPCPPCPAPEAAGGPSVFLFPPKPKDTLMISRTPEVTCVVVDVSQEDPEVQFNWYVDGVEVHNAKTKPREEQFNSTYRVVSVLTVLHQDWLNGKEYKCKVSNKGLPSSIEKTISKAKGQPREPQVYTLPPSQEEMTKNQVSLTCLVKGFYPSDIAVEWESNGQPENNYKTTPPVLDSDGSFFLYSKLTVDKSRWQEGNVFSCSVMHEALHNHYTQKSLSLSLG | 9.95 nM | 0.000483 s⁻¹ | 48500 M⁻¹ s⁻¹ | 2.57 | 0.113 |  |
| 3E7 scFv-Fc (Fc fusion) QVQLQQSGAELVKPGASVKMSCKASGYTFTIYNIHWVRQTPGQGLEWIGLIYPDNGDTSYNQKFKAKATLTADKSSSTAYMQLSSLTSEDSAVYYCARGGFDYWGQGTTLTVSSGGGGSGGGGSGGGGSNIVMTQSQKFMSTSVGDRVSVTCKASQNVGTNVAWYQQKPGQSPKALIYSASYRYSGVPDRFTGSGSGTDFTLTISGVQAEDLADYYCQQHYNTPYTFGGGTKLEIKESKYGPPCPPCPAPEAAGGPSVFLFPPKPKDTLMISRTPEVTCVVVDVSQEDPEVQFNWYVDGVEVHNAKTKPREEQFNSTYRVVSVLTVLHQDWLNGKEYKCKVSNKGLPSSIEKTISKAKGQPREPQVYTLPPSQEEMTKNQVSLTCLVKGFYPSDIAVEWESNGQPENNYKTTPPVLDSDGSFFLYSKLTVDKSRWQEGNVFSCSVMHEALHNHYTQKSLSLSLG | 40.9 nM | 0.00175 s⁻¹ | 42800 M⁻¹ s⁻¹ | 2.29 | 0.093 |  |
| 3C7 scFv-Fc (Fc fusion) EIQLQQSGAELVKPGASVKMSCKASGYIFRNYYIHWVKRTPGQGLEWIGAIYPDNGDTSYNQRFKVKATLTADTSSSTAYMQLSSLTSEDSAVYYCARAFTYWGQGTTLTVSSGGGGSGGGGSGGGGSDIQMIQSPASLSASVGETVTITCGASENIYGALNWYQRKQGKSPQLLIYGATNLADGMSSRFSGSGSGRQYSLKISSLHPDDVATYYCQNVLSTPYTFGGGTKLEIKESKYGPPCPPCPAPEAAGGPSVFLFPPKPKDTLMISRTPEVTCVVVDVSQEDPEVQFNWYVDGVEVHNAKTKPREEQFNSTYRVVSVLTVLHQDWLNGKEYKCKVSNKGLPSSIEKTISKAKGQPREPQVYTLPPSQEEMTKNQVSLTCLVKGFYPSDIAVEWESNGQPENNYKTTPPVLDSDGSFFLYSKLTVDKSRWQEGNVFSCSVMHEALHNHYTQKSLSLSLG | 8.71 nM | 0.000365 s⁻¹ | 41900 M⁻¹ s⁻¹ | 3.1 | 0.077 |  |
| 3B7 scFv displayed on phage (scFv) scFv: EVQLQQSGAELVKPGASVKMSCKASGYTFRYYNMHWVKRTPGQGLEWIGLIYPDNGDTSYNQKFKGKATLTADTSSSTAYMQLSSLTSEDSAVYYCARGGFDYWGQGTTLTVSSGGGGSGGGGSGGGGSDIQMTQSPASLSASVGETVTITCGASENIYGALNWYQRKQGKSPQLLIYGATNLADGMSSRFSGSGSGRQYSLKISSLHPDDVATYYCQNVLSTPYTFGGGTKLELK |  |  |  |  |  | 2.03 |
| 3C9 scFv displayed on phage (scFv) scFv: EIQLQQSGAELVKPGASVKMSCKASGYIFRYYNMHWVKRTPGQGLEWIGLIYPDNGDTSYNQKFKGKATLTADTSSSTAYMQLSSLTSEDSAVYYCARGGLDYWGQGTTLTVSSGGGGSGGGGSGGGGSDIQMIQSPASLSASVGETVTITCGASENIYGALNWYQRKQGKSPQLLIYGATNLADGMSSRFSGSGSGRQYSLKISSLHPDDVATYYCQNVLSTPYTFGGGTKLEIK |  |  |  |  |  | 2.08 |
| 2B1 scFv-Fc (Fc fusion) EVQLQQSGAELVKPGASVKMSCKASGYTFASYNLHWVKQTPGQGLEWIGLIYPENGDTSYNQKFKGKATLTADKSSSTAYIQLSSLTSEDSAVYFCARGGFDYWGQGTSLTVSSGGGGSGGGGSGGGGSDIQMIQSPASLSVSVGETVTITCRASENIYSNLAWYQQKQGKSPQLLVYNAKTLADGVPSRFSGSGSGTQYSLKINSLQPEDFGSYYCQHFWSTPYTFGGGTKLEIKESKYGPPCPPCPAPEAAGGPSVFLFPPKPKDTLMISRTPEVTCVVVDVSQEDPEVQFNWYVDGVEVHNAKTKPREEQFNSTYRVVSVLTVLHQDWLNGKEYKCKVSNKGLPSSIEKTISKAKGQPREPQVYTLPPSQEEMTKNQVSLTCLVKGFYPSDIAVEWESNGQPENNYKTTPPVLDSDGSFFLYSKLTVDKSRWQEGNVFSCSVMHEALHNHYTQKSLSLSLG | 23 nM | 0.00126 s⁻¹ | 54800 M⁻¹ s⁻¹ | 2.72 | 0.076 |  |
| 3A12 scFv-Fc (Fc fusion) EVQLQQSGAELVKPGASVKMSCKASGYTFSFYNVHWVRQTPGQGLEWIGLIYPDNGDTSYNQKFKAKATLTADKSSSAAYMQLSSLTSEDSAVYYCARGGFDYWGQGTSLTVSSGGGGSGGGGSGGGGSDIVMTQSHKFMSTSVGDRVNITCKASQDVSTAVAWYQQKPGQSPKLLIYSASYRYSGVPDRFTGSGSGTDFTFTISSVQAEDLAVYYCQQHYSTPYTFGGGTKLEMKESKYGPPCPPCPAPEAAGGPSVFLFPPKPKDTLMISRTPEVTCVVVDVSQEDPEVQFNWYVDGVEVHNAKTKPREEQFNSTYRVVSVLTVLHQDWLNGKEYKCKVSNKGLPSSIEKTISKAKGQPREPQVYTLPPSQEEMTKNQVSLTCLVKGFYPSDIAVEWESNGQPENNYKTTPPVLDSDGSFFLYSKLTVDKSRWQEGNVFSCSVMHEALHNHYTQKSLSLSLG | 10.7 nM | 0.000485 s⁻¹ | 45400 M⁻¹ s⁻¹ | 2.91 | 0.076 |  |
| 3C7 scFv displayed on phage (scFv) scFv: EIQLQQSGAELVKPGASVKMSCKASGYIFRNYYIHWVKRTPGQGLEWIGAIYPDNGDTSYNQRFKVKATLTADTSSSTAYMQLSSLTSEDSAVYYCARAFTYWGQGTTLTVSSGGGGSGGGGSGGGGSDIQMIQSPASLSASVGETVTITCGASENIYGALNWYQRKQGKSPQLLIYGATNLADGMSSRFSGSGSGRQYSLKISSLHPDDVATYYCQNVLSTPYTFGGGTKLEIK |  |  |  |  |  | 2.02 |
| 3H6 scFv-Fc (Fc fusion) QVQLQQSGAELVKPGASVKMSCKASGYTFSFYNIHWVRQTPGQGLEWIGLIYPDNGDTSYNQKFKAKATLTADKSSSTAYMQLSSLTSEDSAVYYCARGGFDYWGQGTTLTVSSGGGGSGGGGSGGGGSDIQMTQSPASLSASVGETVTITCRASENIYSYLAWYQQKQGKSPQLLVYNAKTLAEGVPSRFSGSGSGTQFSLKINSLQPEDFGSYYCQHHYGTPYTFGGGTKLEMKESKYGPPCPPCPAPEAAGGPSVFLFPPKPKDTLMISRTPEVTCVVVDVSQEDPEVQFNWYVDGVEVHNAKTKPREEQFNSTYRVVSVLTVLHQDWLNGKEYKCKVSNKGLPSSIEKTISKAKGQPREPQVYTLPPSQEEMTKNQVSLTCLVKGFYPSDIAVEWESNGQPENNYKTTPPVLDSDGSFFLYSKLTVDKSRWQEGNVFSCSVMHEALHNHYTQKSLSLSLG | 43.7 nM | 0.00156 s⁻¹ | 35700 M⁻¹ s⁻¹ | 2.39 | 0.077 |  |
| 3D6 scFv-Fc (Fc fusion) QVQLQQSGAELVKPGASVKMSCKASGYTFRYYNMHWVKRTPGQGLEWIGLIYPDNGDTSYNQKFKGKATLTADTSSSTAYMQLSSLTSEDSAVYYCARGGLDYWGQGTSLTVSSGGGGSGGGGSGGGGSDIQMTQSPASLSVSVGETVTITCRASENIYSNLAWYQQKQGKSPQLLVYNAKTLADGVPSRFSGSGSGTQYSLKINSLQPEDFGSYYCQHFWSTPFTFGSGTKLELKESKYGPPCPPCPAPEAAGGPSVFLFPPKPKDTLMISRTPEVTCVVVDVSQEDPEVQFNWYVDGVEVHNAKTKPREEQFNSTYRVVSVLTVLHQDWLNGKEYKCKVSNKGLPSSIEKTISKAKGQPREPQVYTLPPSQEEMTKNQVSLTCLVKGFYPSDIAVEWESNGQPENNYKTTPPVLDSDGSFFLYSKLTVDKSRWQEGNVFSCSVMHEALHNHYTQKSLSLSLG | 21.7 nM | 0.000593 s⁻¹ | 27400 M⁻¹ s⁻¹ | 2.59 | 0.693 |  |
| 3F10 scFv-Fc (Fc fusion) EVQLQQSGAELVKPGASVKMSCKASGYTFSFYNIHWVRQTPGQGLEWIGLIYPDNGDTSYNQKFKAKATLTADKSSSTAYMQLSSLTSEDSAVYYCARGGFDYWGQGTTLTVSSGGGGSGGGGSGGGGSDVLMTQSPASLSASVGETVTITCGASENIYGALNWYQRKQGKSPQLLIYGATNLADGMSSRFSGSGSGRQYSLKISSLHPDDVATYYCQNVLSTPYTFGGGTKLEIKESKYGPPCPPCPAPEAAGGPSVFLFPPKPKDTLMISRTPEVTCVVVDVSQEDPEVQFNWYVDGVEVHNAKTKPREEQFNSTYRVVSVLTVLHQDWLNGKEYKCKVSNKGLPSSIEKTISKAKGQPREPQVYTLPPSQEEMTKNQVSLTCLVKGFYPSDIAVEWESNGQPENNYKTTPPVLDSDGSFFLYSKLTVDKSRWQEGNVFSCSVMHEALHNHYTQKSLSLSLG | 52.5 nM | 0.00217 s⁻¹ | 41300 M⁻¹ s⁻¹ | 2.87 | 0.086 |  |
